Assay results published in the supplement of paper PMC9170038.

Test system: K4 kissing-loop RNA reporter
Assay: apparent KD of K4 kissing-loop reporter; higher = weaker reporter binding
Settings: Eterna round: R107
Experimental: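 RNA-MaP round R107: designed RNA switches with theophylline, tryptophan, arginine or FMN aptamers are transcribed on-chip within common flanks. They are titrated with a labelled K4 kissing-loop RNA reporter in RNA-MaP buffer (100 mM Tris pH 7.5, 80 mM KCl, 4 mM MgCl2), without ligand or with the indicated ligand. Median apparent KD per design.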

[1] = input ligand: theophylline 20 uM
[2] = input ligand: tryptophan 2.4 mM
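Note: bound reporter read as fluorescence of individual clusters on recovered sequencing chips by microscopy, with normalized cluster intensities fitted with a binding model.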

Sequence	apparent KD of K4 kissing-loop reporter (input ligand: FMN 200 uM) [nM]	apparent KD of K4 kissing-loop reporter (input ligand: arginine 13.2 mM) [nM]	apparent KD of K4 kissing-loop reporter (input ligand: none) [nM]	apparent KD of K4 kissing-loop reporter [1] [nM]	apparent KD of K4 kissing-loop reporter [2] [nM]
GUUAAAUAAAUGGGCAUAGUGAUGUUGUGUCGAGGACCGGUACGGCCGCCACUCGAGCUAGCAUGCCGGUCAUUAUGGGUAGUUU [theeternabot_exclusion_KL_Trp_A_46]	112	118	142	132	219
AAAAUAAACCAGUGAUGUUGGUGUCUAGAUACCAGCGACGAAAGUCGCCCUUGGCAGCUGUGGACGUACAAAAUAAGUACGUCCU [MatMod 5 - Jieux - Same State - Theophylline A]	564	327	541	480	472
CGUGAAUGUCGUCAGUCAUCGGUCCAUGCACGAGGACCGGUACGGCCGCCACUCGAGCGUGGCAGUGAUGUUGCCAGCGCACUAA [KL-XTryp-A13]	138	115	128	137	315
UGCCGCAAGGCGAGCGCUCCCACUCCGGAAGGAGCGCCCGGAAGGGCAGGUAGGUCGCCGGAGUGAUGUUCCGGUGGAGGGCUCG [#2 Exclusion - Arginine A Attempt #26 (Inspired by Omei)]	462	165	358	337	297
GGAGUAACCUGGGAUACCAGUCGGAGGCCUAGGGAUCGGAGUGAUGUUCUGGGAUGUUUCGGCCCUUGGCAGCUCUGGGUCUCCG [#2 Exclusion - Theophylline B Attempt #2 (HarryS)]	184	105	151	158	144
UUUAAAUAUAGUGAUGUUAUAUAACAAUGACGAGGACCGGUACGGCCGCCACUCGAGAGAGAUAAUGAUAAAAUAAAUAAUUUUC [AstrosSSTrypA#1]	480	654	643	628	374
AAGUGAUGUUGUAGUGAUGUUGUGAUGUUGCAGGAUAUAUAGUGAUGUAGAAGGGUAUGUACUUAUUUUUUUUUUGAGUUAUGUU [wzzwzrmullin]	79.5	33.4	58	46.2	63.3
GGAAUAACCUGGGAUACCAGUCGGAGGACUAGGGAUCGGAGUGAUGUUCUGGGAUGUUUCGGCCCUUGGCAGCUCUGGUUUUCCG [#2 Exclusion - Theophylline B Attempt #1 (HarryS)]	569	286	551	614	443
UGGAUAUCGUUUAGUCUGGUGAGGUCAGAUACCAGACUAGCGAUAGUCCCUUGGCAGCUGAUUAUGAUUGAGUGAUGUUCAAUCG [Theo A Ex t9a]	179	154	175	180	180
GCUAUCUGAGCCCAGUGAUGUUGAGUGCUGAAGGAUAUGCGAUAGAGCAGAAGGUCAAGAACAUUGUUCGAUUAUCAAAACAAGU [theeternabot_exclusion_KL_FMN_A_35]	264	264	272	356	328
UUGACCUACUCAGGAUAUCCGCAGUGAUGUUGCGGUUGGCCUGAGCGGCAUGAAAAUCUUACUACAGGAGAAGGGAGAGGGUUAC [Atusgeis]	117	85.6	82.6	72.9	86
UCGAAGGAUGGAAGGAGCGCUCGUCAGUCCUGCGAGUGAUGUUCGUGGGUAAAUAGUCGCGAGCAGGUAGGUCGCCAUCUUGAGC [Laxe]	139	102	114	126	109
GUUACGCAUGGAAGGAGCGCGAAUUUAAUUAGUGAGUGAUGUUCACAUAAAAUGUAUAAUACGCAGGUAGGUCGCCAUGUGUAAC [whbob_Ex_Arginine_B_2th163]	81.9	84	77.2	85.7	81.3
GGCUUGCUAGUGAUGUUAGCAUUUUCUGAAGGAGCGCGUGAAAACGCAGGUAGGUCGCAGAACCUUGCCAACUAUUUUAGUUGCC [Ex Arginine A K4 27]	101	113	94.3	97.3	82.4
UCGCAAAAGUCGGCCGCCACUCCGGGCCCUAUAAAUGGGCGCAGUGAUGUUGCGGCUAGGCCUCUGAGGACCGGGACUUUGAAGA [Esesbior]	101	25	23.9	102	131
CCAGGACGAUGAGGAGGAUGAAUUACUGAAGGAGCGCAUAUGGUUGCAGGUAGGUCGCGGUGAACAAGUAUAGUGAUGUUAUAUC [SSArgA.S]	365	971	538	321	321
UUGAGCCUGACGGAAGUCAGGCUCUGCGAGCGAGGACCGGUACGGCCGCCACUCGGUGCAGUGAUGUUGCAUGGCCGCAAGGCCG [#2 Exclusion - Tryptophan A Attempt #16 (HarryS)]	311	290	352	311	420
GGUAUCUAUACAGAUACCAGUCGUACGGCUGCAUUACAGGUUAGUGAUGUUAACCUGUACGACCCUUGGCAGCUGUAUAGUAGUA [#14 K4 Theophylline B Exclusion]	115	94	115	197	104
UGGAGUUGACGAAAAGUCAACUCCUGAGAUACCAGUGACGAAAGUCACCCUUGGCAGCUCACUGCCAGUGAUGUUGGUUCAUAAG [#03 K4 Theophylline A Same State]	223	197	152	245	142
AUGGGUUGUUGAAGGAGCGCCGCCAGUGAUGUUGGGAGUUAGAUACCAGUGAUGUUGGGCCGGCAGGUAGGUCGCGGCGAUUUAU [Exclusion Arginine B GF 19]	347	170	484	332	344
UGACUGGACUGAAGGAGCGCUUAACUCCUAGUGAUGUUAGGAAAACGAGACAAAGUCUCGAAGCAGGUAGGUCGCAGUCUAGUCU	152	123	151	158	132

Sequence	apparent KD of K4 kissing-loop reporter (input ligand: FMN 200 uM) [nM]	apparent KD of K4 kissing-loop reporter (input ligand: arginine 13.2 mM) [nM]	apparent KD of K4 kissing-loop reporter (input ligand: none) [nM]	apparent KD of K4 kissing-loop reporter [1] [nM]	apparent KD of K4 kissing-loop reporter [2] [nM]
GGAUAGGAUAGAGGAUAUGGUAUAUGCAAGAAUAACUUGUCAUGUAAAUCCAUGAGGAGUGAUGUUCCAGAAGGCUGUCCUAUCG [MatMod 10 - Jieux - Exclusion - FMN B]	646	324	480	519	379
UUAGUUAGAUUAUUAUUAGCCUACAAUGCUAAGGAUAUCCGAAUUCGGAGAAGGUAGUGAUGUUACUUAAGUAGGCACUAACAUU [AK7 Exc FMN A]	257	745	932	925	671
ACGUAGUUCUAGGAUACCAGCCAAGGUGCCAGGACAAAAGUCCUGGCAGCCAGUGAUGUUGGCCCUUGGCAGCCUAGAACUACGA [Omei KL Theo B Exc B v7]	164	145	154	122	137
ACAGUUGCUAGUGAUACCAGACUAGCACUACGUAGUAUGUCAAGUGAUGUUUGACAACUAGUCCCUUGGCAGCGCGAUACGACUG [#12 K4 Theophylline B Same State]	181	152	170	136	169
CCGUGGAGUGAUGUUCCACGUUCUACGGAUACCAGUUGUGCCAGCGGCCCUUGGCAGCCGCACCUUGCAGUGAUGUUGUGAGGCU [Same State Theophylline A Gf 6]	238	210	225	229	198
AGAGAUAAGGCGGCCGCCACUAAGAUGAAACUAACGGUCAAGUGAUGUUUGCGGUUACAGUUCAGUAGGACCGGGCCGAGUAAAU [theeternabot_sameState_KL_Trp_B_47]	512	403	407	412	357
GGAGCCGAUAGUGAUACCAGCCAGUGAUGUUGGCGAAGUCUCAUUUUCGCUCUCGGUAAGGGCCCUUGGCAGCACUUACUCGGAA [Arledied]	105	94	102	95.9	104
UGGAGUUGACGAAAAGUCAACUCCUGAGAAGGAGCGGACGAAAGUCCAGGUAGGUCGCUCACUACCAGUGAUGUUGGUAAUUCAA [#OpenEnded 3]	269	284	277	272	234
CUCCGACUAUCGGCCGCCACUAUCGGAAAGUCCACGGACAUUCAAUGCAGUUAGUGAUGUUAACGUAGGACCGGGAUGAUUUGUA [theeternabot_sameState_KL_Trp_B_9]	543	350	659	541	491
UGAUACCAGACGGCCGCCACUACACCAGUCAAAGACUGGAUGUGAUGUUCGACCAGUGAUGUUGGUAGGACCGGGUCUGGUAUCU [TrypBX 7 #Palindromic #SwitchBubble #StaticStem]	133	121	127	109	147
AAUUCAGUGAUGUUGGAAGGCAGGCGGGAUACCAGCGGAGAAUAACGCCCUUGGCAGCCCAUAUAUCCCAAAUAGAUAAUAGUUC [Same State - Theophylline A (Freestyle 3)]	386	317	410	405	376
CCAUCGCUAUUCGAUACCAGCUCCUUAGUGAUGUUAAGGUUUUACCCUCUGUAGGAGGGAAGCCCUUGGCAGCGAGUAGUGAUGG [#03 K4 Theophylline B Same State]	1270	802	948	623	1370
CCUAUCUCAUACGAUACCAGUCAAUGAUCUUUGAUCAAUGCCAUCACCGAGUGAUGUUCGGACCCUUGGCAGCGUAUGAGAUAGG [whbob_Ex_Theo_B_sa103]	277	225	267	452	247
UGUGAACAAAAGUAGAGUGGACCACUAUAGCGAGGACCGGUACGGCCGCCACUCGUACAUGAAUUCAGUGAUGUUGAAAUGAGCU [whbob_EX_Tryp_A_t14]	234	360	334	426	213
UUUAAAUAUAGUGAUGUUAUAUAACAAUGACGAGGACCGGUACGGCCGCCACUCGAGAGAGAUAAUGGUCUUACAAAUGUAAGUC [AstrosSSTryA#8]	546	589	852	738	399
GUGCGGUGGAGGCUACCGCUACUCUGAGAAGGAGCGCAGAUGACUGCAGGUAGGUCGCUUAGAGCUUGCAGUGAUGUUGCAAGUU [Teorzaqu]	166	157	188	132	140
AAGUAGAUCAAGAUCUAGUAUCUAGAUCAACGAGGACCGGUACGGCCGCCACUCGAAUAAUAGAGUGAUGUUCUAAGAUCUACAA [AK1.4 SS Tryptophan A]	898	716	994	968	445
AGCGCUGCCUGAGGAUAUAGAGACGAGUGAUGUUCGUGGAUUGAUACCAGUGAUGUUGGUCUAUUUCUAGAAGGCAGGCGAUCGU [Exclusion FMN B GF 3]	131	85.6	103	105	103
UCCUACGAGGUAACGUGGAUAUCUCGUUGCAAGGAUAUCUGGAAACAGAGAAGGUGCAACAUUAUCGGCAGUGAUGUUGCUGACC	711	242	482	385	280
AGCGUCCCUACGGCCGCCACUGGGAGUGAUGUUCCCAGGUUAGGCCUGAGGAUACUAUGGAUCGCCAGGACCGGGUAGCGACCAA [Zaarin]	93.4	71.8	85.4	97.2	83.5
GCUACCUAGGCAGGAUAUAGACAUUGAGUGAUGUUCGAUGAUUAUCCAUAUUCCCGUCACAUAUGACUAGAAGGGCCUAGGUAGC	660	184	221	228	211
